Results from paper PMC3576881.

Molecular target: TβR-II/TGF-β3 binary complex (UniProt P37173)
Assay: SPR

Kd: 310 nM
Substance: TβR-I 7–91 (domain or fragment)
